Measurements as given in patent publication US20220112288A1 (published 2022).
Changes are numbered by the printed parent chain.

B1: 75110_02I16A (antibody, V domains shown)
VH: QVQLQQWGAGLLKPSETLSLTCDVYGGSFSGYYWTWIRQPPGKGLEWIGEINHSGTTNSNPSLKSRVTISVDTSKSQFSLRLSSVTAADTAVYFCTRELNWFDPWGQGTLVTVSS
VL: DIQMTQSPSSVSASVGDRVTITCRASQDIANWLAWYQQKPGKAPQLLIYAASSLLGGVPSRFSGSGSGADFTLTISSLHPEDFATYYCQQANSFPYTFGQGTKLEIK
notes: Tested as clonal hybridoma supernatant (AlivaMab Mouse Kappa; anti-mouse Fc detection); also called 75110_02116A
B2: 75110_02K11A (antibody, V domains shown)
VH: QVQLQESGPGLVKPSQTLSLTCTVSGGSISSGFYYWTWIRQHPGKGLEWIGYISYSGNTYYNPSFKSRLTISVDTSKSQFSLKLSSVTAADTAVYYCARDRPSNFDAFDIWGQGTMVTVSS
VL: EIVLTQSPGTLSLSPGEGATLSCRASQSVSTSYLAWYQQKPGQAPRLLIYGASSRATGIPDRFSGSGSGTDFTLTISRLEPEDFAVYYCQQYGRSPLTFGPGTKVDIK
notes: Tested as clonal hybridoma supernatant (AlivaMab Mouse Kappa; anti-mouse Fc detection); also called Sib3.1
B3: 75110_02E22A (antibody, V domains shown)
VH: QVQLQESGPGLVKPSETLSLTCTVSGGSISSFYWSWIRQPAGKGLEWIGRIYTSGSTNYNPSLKSRVTMSVDTSKNQFSLKLSSVTAADTAVYYCARELEKRNYYGMDVWGQGTTVTVSS
VL: DIQMTQSPSSLSASVGDRVTITCQASHDISNYLNWYQQKPGKAPKLLIFDASTLETGVPSRFSGSGSGTYFTFTIRSLQPEDIATYYCQQYDSLPLTFGGGTKVEIK
notes: Tested as clonal hybridoma supernatant (AlivaMab Mouse Kappa; anti-mouse Fc detection); also called Sib7.1
B4: 75110_01N04A (antibody, V domains shown)
VH: EVQLVESGGGLVQPGGSLRLSCAASGFTFSNYDMHWVRQATGKGLEWVSTIGTAGDTYYPGSVKGRFTISRENAKNSLYLQMNSLRAGDTAVYYCARGGDFYYGLDVWGQGTTVTVSS
VL: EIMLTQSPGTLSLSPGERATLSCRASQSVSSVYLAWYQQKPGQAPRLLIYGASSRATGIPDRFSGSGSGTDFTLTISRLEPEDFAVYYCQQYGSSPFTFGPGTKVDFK
notes: Tested as clonal hybridoma supernatant (AlivaMab Mouse Kappa; anti-mouse Fc detection); also called Sib1.13
B5: 75110_01J17A (antibody, V domains shown)
VH: B4 VH with N31S, A40G, G55D, K75E, F101Y, L105M
VL: EIVLAQSPGTLSLSPGERATLSCRASQSVYISYLAWYQQKPGQAPRLLIYGASSRATGIPDRFSGSGSGTDFTLTITRLEPEDFAVYYCQQFGSSPFTFGPGTKVDFK
notes: Tested as clonal hybridoma supernatant (AlivaMab Mouse Kappa; anti-mouse Fc detection); also called Sib1.12
B6: 75110_01G11A (antibody, V domains shown)
VH: B4 VH with N31S, K75R, Y79F, F101Y, L105M
VL: B5 VL with A5T, S14F, S28N, V29T, I31S, S54N, T77S, F92H, S94T, F107I
notes: Tested as clonal hybridoma supernatant (AlivaMab Mouse Kappa; anti-mouse Fc detection); also called Sib1.6
B7: 75110_01K10A (antibody, V domains shown)
VH: B4 VH with G10A, S30R, F101Y, L105M
VL: B5 VL with A5T, G9D, V29L, Y30S, I31S, S32V, S66T, T77S, F92Y, F107I
notes: Tested as clonal hybridoma supernatant (AlivaMab Mouse Kappa; anti-mouse Fc detection); also called Sib1.3
B8: 75110_01E08A (antibody, V domains shown)
VH: B4 VH with S30N, G61A, S70Y, F101Y, L105M
VL: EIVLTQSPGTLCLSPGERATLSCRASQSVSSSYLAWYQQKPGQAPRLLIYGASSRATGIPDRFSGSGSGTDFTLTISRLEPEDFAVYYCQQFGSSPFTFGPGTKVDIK
notes: Tested as clonal hybridoma supernatant (AlivaMab Mouse Kappa; anti-mouse Fc detection); also called Sib1.11
B9: 75110_02I18A (antibody, V domains shown)
VH: B4 VH with L4V, N31S, D100Y, F101Y, L105M
VL: B5 VL with A5T, Y30S, I31S, A44S, Y50H, F63V, T77S, F92Y, F107I
notes: Tested as clonal hybridoma supernatant (AlivaMab Mouse Kappa; anti-mouse Fc detection); also called 75110_02118A; Sib1.14
B10: 75110_02E08A (antibody, V domains shown)
VH: QVQLQESGPGLVKPSETLSLTCTVSGGSISTYYWTWIRQPAGKGLEWIGRVYTSGDTNYNPSLKSRVAMSLDTSKNQFSLKLSSVTAADTAVYYCARDSGALYSWNYGDAFDIWGQGTMVTVSS
VL: DIQMTQSPSAMSASVGDRVTITCRASQDISNYLAWFQQKPGKVPKRLIYAASSLQSGVPSRFSGSGSGTEFTLTISSLQPEDFATYYCLQHNSYPRTFGQGTKVEIK
notes: Tested as clonal hybridoma supernatant (AlivaMab Mouse Kappa; anti-mouse Fc detection)
B11: 75110_01L08A (antibody, V domains shown)
VH: QVQLQESGPGLVKPSETLSLTCTVSGGSISHYYWSWIRQPPGKGLEWIGYIHYSGTTNYNPSLKSRVTISVDTSKNQLSLKLRSVTAADTAVYYCARDQGFSSGGMDVWGQGTTVTVSS
VL: not shown
notes: as for B10
B12: 75110_01D24A (antibody, V domains shown)
VH: QVQLQQWGAGLLKPSETLSLTCAVYGGSFSGYYWSWIRQPPGKGLEWIGEINHSGSTNYNPSLKSRVTISVDTSENQFSLKLNSVTAADTAVYYCARLVNWFDPWGQGTLVTVSS
VL: EIQMTQSPSSVSASVGDRVTITCRASQDISNWLAWYQQKPGKAPNLLIFAASSLQTGVPSRFSGSGSGTDFTLTISSLQPDDFATYYCQQANSFPYSFGQGTNLGIK
notes: as for B10
B13: 75110_01A06A (antibody, V domains shown)
VH: EVQLVESGGGLVQPGGSLRLSCAASGFTFSSYWMSWVRQAPGKGLEWVANINEDGNEKYYVDSVKGRLTISRDNAKNSLYLQMNSLRAEDTAVYFCAREGGQWLSLDYWGQGALVTVSS
VL: DIQMTQSPSSVSASVGDRVSITCRASQGISSWLAWYQQKPGKAPKILIYGASSLQSGVPSRFSGSGSGTDFTLTISSLQPEDFATYYCQQANSFPWTFGQGTKVEIK
notes: Tested as clonal hybridoma supernatant of an AlivaMab Mouse Kappa hybridoma (detected with anti-mouse Fc); Kappa light chain; also called Sib2.1
B14: 75110_01C18A (antibody, V domains shown)
VH: EVQLVESGGGLIQPGGSLRLSCAASGFTVSSNYMNWVRQAPGKGLEWVSVIYAGDNTYSADSVKGRFTISRDNSNNTLCLQMNSLRAEDTAVYYCAREGGTTGAFDIWGQGTMVTVSS
VL: B13 VL with S20T, S30N, I46L, G50A, A91G, W96Y, V104L
notes: as for B10
B15: 75110_01J09A (antibody, V domains shown)
VH: B13 VH with A23V, I51T, N52K, N56S, E57D, L68F, S71C, F95Y, S105A, A113T
VL: B13 VL with S20T, T22N, K45N, I46L, Y49F, S67F, T72S, S76T, S77T, Y87H
notes: Tested as clonal hybridoma supernatant (AlivaMab Mouse Kappa; anti-mouse Fc detection); also called Sib2.2
B16: 75110_01H18A (antibody, V domains shown)
VH: B12 VH with P40S, H53Q, E75K, N83S, L98V, V99I, P104S
VL: B13 VL with S20T, I46L, G50A, L54F, P80T, W96Y, K103R, V104L
notes: Tested as clonal hybridoma supernatant (AlivaMab Mouse Kappa; anti-mouse Fc detection); also called Sib6.1
B17: 75110_03D16A (antibody, V domains shown)
VH: B13 VH with E53Q, N56G, L68F, F95Y, A97V, S105A, A113T
VL: B13 VL with S20T, A34T, I46F, G50A, S67F
notes: Tested as clonal hybridoma supernatant (AlivaMab Mouse Kappa; anti-mouse Fc detection); also called Sib2.5
B18: 75110_02N15A (antibody, V domains shown)
VH: B13 VH with L68F, Y80F, S105A, Y108H
VL: B13 VL with S20T, I46F, Y49S, I106F
notes: Tested as clonal hybridoma supernatant (AlivaMab Mouse Kappa; anti-mouse Fc detection); also called Sib2.3
B19: 75110_03C01A (antibody, V domains shown)
VH: B12 VH with P40S, H53Q, E75K, N76D, N83S, L98V, V99I, P104S, T109S
VL: B13 VL with S20T, K42N, I46L, G50D, L54F, P80T, W96Y, V104L
notes: Tested as clonal hybridoma supernatant (AlivaMab Mouse Kappa; anti-mouse Fc detection); also called Sib6.2

Biological target: T1, human CD4 (human, UniProt P01730 26-458)
T1 construct: whole, on cells; also called hCD4
Assay: FACS, clonal hybridoma supernatant on human PBMCs

Row | Binder | % CD4 Stain [%] | gMFI of CD4+ [gMFI]
1 | B1 | 36.1 | 145000
2 | B2 | 28.2 | 203000
3 | B3 | 32.8 | 268000
4 | B4 | 37.2 | 205000
5 | B5 | 35.2 | 167000
6 | B6 | 39 | 164000
7 | B7 | 38 | 191000
8 | B8 | 36.5 | 113000
9 | B9 | 40.5 | 162000
10 | B10 | 35.4 | 115000
11 | B11 | 35.3 | 208000
12 | B12 | 32.9 | 134000
13 | B13 | 33.7 | 115000
14 | B14 | 34.1 | 205000
15 | B15 | 34.8 | 143000
16 | B16 | 48.8 | 101000
17 | B17 | 35.6 | 207000
18 | B18 | 39 | 253000
19 | B19 | 36.1 | 169000
